# Experimental data reported in patent US20110250237A1, “IMMUNOGENIC AMPHIPATHIC PEPTIDE COMPOSITIONS” (priority 2008, published 2011).
# Test: Differential scanning calorimetry of peptide and particles
# Format: physicochemical
# Settings: normal saline, peptide 1.11 mg/ml, scanned 20° C. to 130° C.
# Description: Differential scanning calorimetry is used to study the unfolding events associated with the peptide and particles. This technique is used to measure the amount of heat required to increase the temperature of the sample and reference, resulting in peaks at phase transition temperatures at which more heat is required by the samples to be maintained at the same temperature as the reference. In case of proteins the melting temperatures are determined at which half of the protein exists in an unfolded state.
# The peptide of SEQ ID NO: 1 is used to form particles at peptide to lipid (POPC) molar ratios of 1:1.75, 1:3 and 1:7, the particles with peptide at concentration of 1.11 mg/ml and lipid at 0.55 mg/ml are used. The peptide alone and lipid alone are used as controls and the samples are scanned from 20° C. to 130° C.
sequence,measurement,value
"DWLKAFYDKVAEKLKEAFLA [peptide SEQ ID NO: 1, amphipathic peptide]",phase transition,50 °C
